From the supplement of paper PMC11865577

System: TO-N3-2 (biotin conjugate)
Assay: pull-down binding Z-score (relative to library population); higher = stronger binding
Details: RNA library: Library-2
Procedure, shortened: (§1)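 An RNA library (1 μg) carrying a Cy5 or Cy3 end label was heat-folded in phosphate/NaCl/KCl buffer, then incubated for 60 min at 25 °C with streptavidin beads loaded with 100 pmol of biotin-conjugated small molecule. The beads were washed three times, and bound RNA was released in hot SDS and hybridised to a DNA barcode microarray for 20 h at 55.5 °C. Each binding score was derived by subtracting the signal from beads without compound, averaging the barcoded replicate probes after removing the highest and lowest, and expressing the result as a Z-score relative to the library mean and standard deviation.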

Sequence	pull-down binding Z-score
UAAUCAGACAAGGAACUGAUUA	-0.943
UAAUGGUUUAACUUCUAUUA [DMSMaPseq_invitro_SARS-CoV-2_Motif_100]	-1.37
UAAUUAUAAAUUACCAGAUGAUUUUACAGGCUGCGUUAUAGCUUGGAAUUCUAACAAUCUUGAUUCUAAGGUUGGUGGUAAUUAUAAUUA	-0.713
UAAUUCUUGGCUUAUGUGGUUAAUAAUUA [DMSMaPseq_invitro_SARS-CoV-2_Motif_139]	-0.709
UACAAACUUGUG [DMSMaPseq_invitro_SARS-CoV-2_Motif_398]	-1.04
UACAAUUUGCCUAUGCCAACAGGAAUAGGUUUUUGUA	-1.3
UACAUGUGUUGGUAGCGAUAAUGUUACUGACUUUAAUGCAAUUGCAACAUGUG [DMSMaPseq_invitro_SARS-CoV-2_Multi_49_ComplexLevel_1]	-0.909
UACCAGACUAUAACACAUAUAAAAAUACGUGUGAUGGUA [DMSMaPseq_invitro_SARS-CoV-2_Motif_221]	-1.24
UACCAGCUGUACUCAACUCAAUUGAGUACAGACACUGGUG [DMSMaPseq_invitro_SARS-CoV-2_Motif_468]	-1.06
UACCAUUUAAUGAUGGUG	-1.03
UACCGAUGCCAUAGAGGUG [IAV_invivo_PB1_2_Motif_30+IAV_invivo_PB1_2_Motif_30]	0.166
UACCUUUUGCUAUGGGUA	-1.26
UACUAAUAUGUUUACACCACUAAUUCAACCUAUUGGUGCUUUGGACAUAUCAGCAUCUAUAGUAGCUGGUGGUAUUGUAGCUAUCGUAGUA [SHAPE_invivo_SARS-CoV-2_Motif_188]	0.354
UACUGGUUCUAUACCUUGUA [SARS-CoV-2-Conserved-Structured-4_Interval-7011-7130_Motif_3]	-0.722
UACUUUACUCAGAGUA [SHAPE_invitro_SARS-CoV-2_Motif_368]	-1.64
UAGAAUAGACGGUGACAUGGUACCACAUAUAUCACGUCAACGUCUUACUA [SHAPE_invivo_SARS-CoV-2_Motif_261]	-0.953
UAGACAAUUCUAGUCUUACUAUUAAGAAACCUAAUGAAUUAUCUA [SHAPE_invivo_SARS-CoV-2_Motif_135]	-1.41
UAGAGAAAACAACAGAGUUGUUAUUUCUAGUGAUGUUCUUGUUAACAACUAAACGAACAAUGUUUGUUUUUCUUGUUUUAUUGCCACUAGUCUCUA [SHAPE_invitro_SARS-CoV-2_Multi_58_ComplexLevel_1]	-0.78
UAGAGGUACAACAGUACUUUUA	-1.28
UAGAGUGCUAUCUA [SHAPE_invitro_SARS-CoV-2_Motif_352]	-0.86
UAGAUGCUGUAAAUUUACUUACUAAUAUGUUUACACCACUAAUUCAACCUAUUGGUGCUUUGGACAUAUCAGCAUCUA [DMSMaPseq_invitro_SARS-CoV-2_Multi_30_ComplexLevel_1]	-0.105
UAGCGUGCCUUUGUAAGCACAAGCUG	0.342
UAGCUGGUUUUGCUA [SHAPE_invivo_SARS-CoV-2_Motif_257]	-0.612
UAGCUGUACCCUAUAAUAUGAGAGUUAUACAUUUUGGUGCUGGUUCUGAUAAAGGAGUUGCACCAGGUACAGCUG	-0.588
UAGCUUGUUUUGUGCUUGCUG [SHAPE_invivo_SARS-CoV-2_Motif_507]	-0.699
UAGGCACGGCACUUGUGAAAGAUCAGAAGCUGGUGUUUG	0.362

System: TO-3-N3-2 (biotin conjugate)
Assay: as above
Details: RNA library: Library-2
Procedure, shortened: as §1

Sequence	pull-down binding Z-score
UAAUCAGACAAGGAACUGAUUA	-0.537
UAAUGGUUUAACUUCUAUUA [DMSMaPseq_invitro_SARS-CoV-2_Motif_100]	-0.395
UAAUUAUAAAUUACCAGAUGAUUUUACAGGCUGCGUUAUAGCUUGGAAUUCUAACAAUCUUGAUUCUAAGGUUGGUGGUAAUUAUAAUUA	0.371
UAAUUCUUGGCUUAUGUGGUUAAUAAUUA [DMSMaPseq_invitro_SARS-CoV-2_Motif_139]	-0.0756
UACAAACUUGUG [DMSMaPseq_invitro_SARS-CoV-2_Motif_398]	-0.609
UACAAUUUGCCUAUGCCAACAGGAAUAGGUUUUUGUA	-0.176
UACAUGUGUUGGUAGCGAUAAUGUUACUGACUUUAAUGCAAUUGCAACAUGUG [DMSMaPseq_invitro_SARS-CoV-2_Multi_49_ComplexLevel_1]	0.0202
UACCAGACUAUAACACAUAUAAAAAUACGUGUGAUGGUA [DMSMaPseq_invitro_SARS-CoV-2_Motif_221]	-0.385
UACCAGCUGUACUCAACUCAAUUGAGUACAGACACUGGUG [DMSMaPseq_invitro_SARS-CoV-2_Motif_468]	-0.473
UACCAUUUAAUGAUGGUG	-0.21
UACCGAUGCCAUAGAGGUG [IAV_invivo_PB1_2_Motif_30+IAV_invivo_PB1_2_Motif_30]	-0.0397
UACCUUUUGCUAUGGGUA	-0.454
UACUAAUAUGUUUACACCACUAAUUCAACCUAUUGGUGCUUUGGACAUAUCAGCAUCUAUAGUAGCUGGUGGUAUUGUAGCUAUCGUAGUA [SHAPE_invivo_SARS-CoV-2_Motif_188]	0.253
UACUGGUUCUAUACCUUGUA [SARS-CoV-2-Conserved-Structured-4_Interval-7011-7130_Motif_3]	-0.095
UACUUUACUCAGAGUA [SHAPE_invitro_SARS-CoV-2_Motif_368]	-0.589
UAGAAUAGACGGUGACAUGGUACCACAUAUAUCACGUCAACGUCUUACUA [SHAPE_invivo_SARS-CoV-2_Motif_261]	-0.164
UAGACAAUUCUAGUCUUACUAUUAAGAAACCUAAUGAAUUAUCUA [SHAPE_invivo_SARS-CoV-2_Motif_135]	-0.287
UAGAGAAAACAACAGAGUUGUUAUUUCUAGUGAUGUUCUUGUUAACAACUAAACGAACAAUGUUUGUUUUUCUUGUUUUAUUGCCACUAGUCUCUA [SHAPE_invitro_SARS-CoV-2_Multi_58_ComplexLevel_1]	-0.215
UAGAGGUACAACAGUACUUUUA	-0.423
UAGAGUGCUAUCUA [SHAPE_invitro_SARS-CoV-2_Motif_352]	-0.553
UAGAUGCUGUAAAUUUACUUACUAAUAUGUUUACACCACUAAUUCAACCUAUUGGUGCUUUGGACAUAUCAGCAUCUA [DMSMaPseq_invitro_SARS-CoV-2_Multi_30_ComplexLevel_1]	-0.0621
UAGCGUGCCUUUGUAAGCACAAGCUG	0.0842
UAGCUGGUUUUGCUA [SHAPE_invivo_SARS-CoV-2_Motif_257]	0.105
UAGCUGUACCCUAUAAUAUGAGAGUUAUACAUUUUGGUGCUGGUUCUGAUAAAGGAGUUGCACCAGGUACAGCUG	-0.121
UAGCUUGUUUUGUGCUUGCUG [SHAPE_invivo_SARS-CoV-2_Motif_507]	-0.546
UAGGCACGGCACUUGUGAAAGAUCAGAAGCUGGUGUUUG	-0.246
